The series deals with the molecule itself. Nature of the series: NMR solution structure.

B1: carboxy-terminal domain (CTD) fragment of λ Ea22 (102-182) (domain or fragment, bacteriophage λ)
chain: SNEVREDGNQFLVVRHPGKTPVIKHCTGDLEEFLRQLIEQDPLVTIDIITHRYYGVGGQWVQDAGEYLHMMSDAGIRIKGEIETAV
Turning to B1, the binding result is listed as “binds”.
